{
  "source": "paper PMC6018003",
  "about": "“Quantifying the Interaction between Copper-Zinc Superoxide Dismutase (Sod1) and its Copper Chaperone (Ccs1)” (Journal of proteomics & bioinformatics, 2018)",
  "binders": {"B1": {"name": "Ccs1 lacking D1 (domain or fragment)", "chain": "IRGAGKPNSSAVAILETFQKYTIDQKKDTAVRGLARIVQVGENKTLFDITVNGVPEAGNYHASIHEKGDVSKGVESTGKVWHKFDEPIECFNESDLGKNLYSGKTFLSAPLPTWQLIGRSFVISKSLNHPENEPSSVKDYSFLGVIARSAGVWENNKQVCACTGKTVWEERKDALANNIK"}, "B2": {"name": "Ccs1 lacking D3 (domain or fragment)", "chain": "MTTNDTYEATYAIPMHCENCVNDIKACLKNVPGINSLNFDIEQQIMSVESSVAPSTIINTLRNCGKDAIIRGAGKPNSSAVAILETFQKYTIDQKKDTAVRGLARIVQVGENKTLFDITVNGVPEAGNYHASIHEKGDVSKGVESTGKVWHKFDEPIECFNESDLGKNLYSGKTFLSAPLPTWQLIGRSFVISKSLNHPENEPSSVKDYSFLGVIARSAGVW"}},
  "biological_target": "T1, H46R/H48Q/C146S Sod1 labeled with Alexa-546 at C57 (yeast, Alexa-546 C5-maleimide on C57)",
  "T1 construct": "two residue (Gly-His) extension left on the N-terminus after TEV cleavage; The vector with His tag and TEV site is stated for Ccs1; the purification with tag removal is told of both proteins; also called immature Sod1; E, E-Sod1^SH; source: E. coli BL21 (DE3) pLysS, purified (HisTrap HP Ni2+ column, TEV cleavage; Superdex 200 after labeling); not shown: His8, N-terminal, cleaved",
  "T1 sequence (P00445 2-154 with H46R H48Q C146S, looked up)": "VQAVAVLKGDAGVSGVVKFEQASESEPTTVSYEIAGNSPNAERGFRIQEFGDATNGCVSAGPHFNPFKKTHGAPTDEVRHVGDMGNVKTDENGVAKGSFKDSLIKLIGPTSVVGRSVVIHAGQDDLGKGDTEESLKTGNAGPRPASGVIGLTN",
  "assay": "other fluorescence titration; microplate, quenching of Alexa-546-labeled Sod1 on titration with Ccs1; Sod1 metal deficient and disulfide reduced (E, E-Sod1^SH); 20 mM Tris pH 7.5, 150 mM NaCl, 1 mM TCEP, 0.01% octyl glucoside and CHAPS",
  "conditions": "both partners purified",
  "data": [
    {"binder": "B1", "values": [
      {"measurement": "Kd", "value": "217 ± 38", "unit": "nM"}
    ]},
    {"binder": "B2", "values": [
      {"measurement": "Kd", "value": "552 ± 105", "unit": "nM"}
    ]}
  ]
}
